This assay addresses CLAG3-tv2 (CLAG3h with C-terminal His10-FLAG-thrombin-TEV-HA-twinstrept-BC2 multi-tag) (Plasmodium falciparum). The experiment in a line: native MS; endogenous RhopH complex purified via CLAG3-tv2 (FLAG, then Ni-NTA), exchanged into 200 mM ammonium acetate pH 7.5, 0.01% Tween-20; Exactive Plus EMR.

Data on two substances can be found in publication PMC7840181.

In general, stoichiometry N refers to a count of units in the complex or per binding partner. Consider “RhopH2 (from UniProt C0H571 20-1378) (natural protein)”, for which the stoichiometry N was determined as 1.

Turning to “RhopH3 (from UniProt Q8I395 25-897) (natural protein)”, the stoichiometry N was determined as 1.
